Assay results published in article PMC4739769, “Transmembrane chemokines act as receptors in a novel mechanism termed inverse signaling” (eLife, 2016).

T1: transmembrane CXCL16 with a hemagglutinin tag, expressed in LOX melanoma cells (human, UniProt Q9H2A7 30-254)
T1 construct: CXCL16, transmembrane form; expression vector CXCL16-HA in pcDNA3.1 as described in Abel et al., 2004; called full-length tm-chemokine in the results; also called tm-CXCL16; CXCL16-HA; source: LOX melanoma cells, transfected (pcDNA3.1), on cells or in isolated membranes
T1 sequence (looked up): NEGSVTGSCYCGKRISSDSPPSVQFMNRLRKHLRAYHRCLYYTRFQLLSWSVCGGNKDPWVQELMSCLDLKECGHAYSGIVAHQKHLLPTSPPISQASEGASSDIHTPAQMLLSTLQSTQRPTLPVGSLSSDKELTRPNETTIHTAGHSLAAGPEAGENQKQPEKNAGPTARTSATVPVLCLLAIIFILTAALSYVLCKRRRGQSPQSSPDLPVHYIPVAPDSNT


What was measured:
[1] = molecular target: transmembrane CX3CL1, expressed in LOX melanoma cells (human) (UniProt P78423); test: cross-linking; isolated membranes of tm-chemokine overexpressing LOX cells (1.5 mg membrane protein, 0.2 M triethanolamine-hydrochloride pH 8.0) with 2 nM recombinant s-chemokine over night at 4°C; 1% paraformaldehyde 1 hr at room temperature; SDS-PAGE and Western blot
Sequence of transmembrane CX3CL1, expressed in LOX melanoma cells (human) (P78423 25-397): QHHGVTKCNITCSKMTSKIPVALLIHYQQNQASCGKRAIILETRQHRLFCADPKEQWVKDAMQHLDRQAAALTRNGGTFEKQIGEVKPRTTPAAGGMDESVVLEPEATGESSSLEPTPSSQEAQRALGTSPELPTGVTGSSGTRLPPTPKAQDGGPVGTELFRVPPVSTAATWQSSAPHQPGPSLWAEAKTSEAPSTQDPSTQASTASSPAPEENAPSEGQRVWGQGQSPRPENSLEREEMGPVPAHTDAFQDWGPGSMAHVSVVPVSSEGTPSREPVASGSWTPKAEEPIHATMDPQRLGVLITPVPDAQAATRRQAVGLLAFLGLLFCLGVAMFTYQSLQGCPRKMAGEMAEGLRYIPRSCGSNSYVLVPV

[2] = molecular target: T1, transmembrane CXCL16 with a …; test: as above; conditions: one partner purified

| stoichiometry N [1] | stoichiometry N [2] | Molecule |
| --- | --- | --- |
| 1 to 2 | – | soluble CX3CL1 (recombinant human chemokine) (ligand) |
| – | 1 to 2 | soluble CXCL16 (recombinant human chemokine) (ligand, Cy3 (monoreactive NHS ester) for light microscopy; biotin (One-step antibody biotinylation kit) for flow cytometry; adsorbed to 5 nm gold particles for electron microscopy; no label named for cross-linking and stimulation) NEGSVTGSCYCGKRISSDSPPSVQFMNRLRKHLRAYHRCLYYTRFQLLSWSVCGGNKDPWVQELMSCLDLKECGHAYSGIVAHQKHLLP |
